Where no end group is shown, it is not given here.
Biological target: T1, EphA2 ligand-binding domain fused to human Fc (EphA2 Fc) (UniProt P29317 24-537)
Assay: ELISA

T1 sequence (P29317 24-537): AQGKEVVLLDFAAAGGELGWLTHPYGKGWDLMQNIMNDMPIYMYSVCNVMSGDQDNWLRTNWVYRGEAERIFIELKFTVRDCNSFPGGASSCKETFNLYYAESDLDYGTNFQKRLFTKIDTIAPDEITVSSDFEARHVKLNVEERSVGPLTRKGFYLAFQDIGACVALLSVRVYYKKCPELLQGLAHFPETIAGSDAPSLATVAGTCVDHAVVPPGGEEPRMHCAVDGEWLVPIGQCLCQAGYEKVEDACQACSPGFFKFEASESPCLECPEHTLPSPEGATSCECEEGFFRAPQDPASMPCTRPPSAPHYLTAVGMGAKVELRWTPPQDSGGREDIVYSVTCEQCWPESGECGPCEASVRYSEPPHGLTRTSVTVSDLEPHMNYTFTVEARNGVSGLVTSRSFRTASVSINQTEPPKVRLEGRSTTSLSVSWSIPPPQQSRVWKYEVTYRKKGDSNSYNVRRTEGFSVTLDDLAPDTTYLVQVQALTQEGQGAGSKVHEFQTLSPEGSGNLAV

Binder	IC50
YSAAPDSVPMMS (C-terminal amide if made in house) [Ala-4 peptide (YSA-12mer with alanine at position 4)]	> 100 µM

Biological target: T1, EphA2 ligand-binding domain fused to …
Assay: ELISA
Remark: another data set of the same source

Binder	IC50
YSSYPDSVPMMS (C-terminal amide if made in house) [YSS-12mer]	> 100 µM
YSAYPDSVPC (also: homodimer, disulfide between C-terminal cysteines of the two chains) [dimerized YSA-C-10mer]	1.8 µM
YSAYPDSVPC (free C-terminal cysteine thiol; C-terminal amide if made in house) [YSA-C-10mer (monomeric)]	5.2 µM
SWLAYPDSVPMMS (C-terminal amide if made in house) [SWLA-13mer]	6.5 µM
SWLAYPDSVP (C-terminal amide if made in house) [SWLA-10mer]	39 µM
SWLAYPDSVPC (free C-terminal cysteine thiol; C-terminal amide if made in house) [SWLA-C-11mer]	3.7 µM
YSAFPDSVPMMS (C-terminal amide if made in house) [YSAF-12mer]	47 µM
